{"source": "paper PMC4396693", "about": "“Structural Basis of Latrophilin-FLRT Interaction” (Structure(London, England:1993), 2015)", "molecules": {"B1": {"name": "murine FLRT2 full ectodomain, wild type (residues 35-540) (domain or fragment)", "chain": "ACPSVCRCDRNFVYCNERSLTSVPLGIPEGVTVLYLHNNQINNAGFPAELHNVQSVHTVYLYGNQLDEFPMNLPKNVRVLHLQENNIQTISRAALAQLLKLEELHLDDNSISTVGVEDGAFREAISLKLLFLSKNHLSSVPVGLPVDLQELRVDENRIAVISDMAFQNLTSLERLIVDGNLLTNKGIAEGTFSHLTKLKEFSIVRNSLSHPPPDLPGTHLIRLYLQDNQINHIPLTAFANLRKLERLDISNNQLRMLTQGVFDHLSNLKQLTARNNPWFCDCSIKWVTEWLKYIPSSLNVRGFMCQGPEQVRGMAVRELNMNLLSCPTTTPGLPVFTPAPSTVSPTTQSPTLSVPSPSRGSVPPAPTPSKLPTIPDWDGRERVTPPISERIQLSIHFVNDTSIQVSWLSLFTVMAYKLTWVKMGHSLVGGIVQERIVSGEKQHLSLVNLEPRSTYRICLVPLDAFNYRTVEDTICSEATTHASYLNNGSNTASSHEQTTSHSMGSP"}}, "key": {"[1]": {"target": "murine FLRT2 full ectodomain, wild type (residues 35-540) (murine) (UniProt Q8BLU0)", "assay": "SPR; one or the other of the two set-ups (FLRT2 ectodomain on CM5 with LPHN3 Olf as analyte, or LPHN3^Lec-Olf on streptavidin with FLRT2 ectodomain as analyte); the text does not say which value belongs to which; 25°C, PBS pH 7.5"}, "[2]": {"target": "T1, murine LPHN3 olfactomedin domain (LPHN3^Olf, residues 202-463) (murine, UniProt Q80TS3 202-463)", "T1 chain": "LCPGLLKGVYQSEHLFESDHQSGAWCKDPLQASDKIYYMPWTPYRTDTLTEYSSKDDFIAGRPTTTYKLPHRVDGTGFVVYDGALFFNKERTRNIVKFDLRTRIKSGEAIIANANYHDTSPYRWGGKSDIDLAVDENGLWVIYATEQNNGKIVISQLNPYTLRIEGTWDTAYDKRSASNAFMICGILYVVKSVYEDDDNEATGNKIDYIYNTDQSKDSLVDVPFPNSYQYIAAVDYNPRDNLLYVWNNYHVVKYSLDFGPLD", "assay": "SPR"}, "[3]": {"target": "T2, murine LPHN3 olfactomedin domain (LPHN3^Olf, residues 202-463), Q80TS3", "T2 chain": "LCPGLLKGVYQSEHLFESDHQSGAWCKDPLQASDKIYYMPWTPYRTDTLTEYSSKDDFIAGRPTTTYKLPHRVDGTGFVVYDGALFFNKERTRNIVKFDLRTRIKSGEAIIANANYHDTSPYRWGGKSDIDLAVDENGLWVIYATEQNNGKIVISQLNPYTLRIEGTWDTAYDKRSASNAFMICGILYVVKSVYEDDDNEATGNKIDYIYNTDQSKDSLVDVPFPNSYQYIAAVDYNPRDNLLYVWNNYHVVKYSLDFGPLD", "assay": "SPR", "details": "chain shown with the change"}, "[4]": {"target": "B1", "assay": "SPR"}, "[5]": {"target": "T3, murine FLRT2 full ectodomain, wild type (residues 35-540) (murine, UniProt Q8BLU0 35-540)", "T3 construct": "Fibronectin leucine-rich repeat transmembrane protein 2 (FLRT2), mouse, full-length ectodomain, residues 35-540; also called FLRT2 ectodomain; source: HEK293S GlnTI- cells, transiently expressed", "T3 sequence (looked up)": "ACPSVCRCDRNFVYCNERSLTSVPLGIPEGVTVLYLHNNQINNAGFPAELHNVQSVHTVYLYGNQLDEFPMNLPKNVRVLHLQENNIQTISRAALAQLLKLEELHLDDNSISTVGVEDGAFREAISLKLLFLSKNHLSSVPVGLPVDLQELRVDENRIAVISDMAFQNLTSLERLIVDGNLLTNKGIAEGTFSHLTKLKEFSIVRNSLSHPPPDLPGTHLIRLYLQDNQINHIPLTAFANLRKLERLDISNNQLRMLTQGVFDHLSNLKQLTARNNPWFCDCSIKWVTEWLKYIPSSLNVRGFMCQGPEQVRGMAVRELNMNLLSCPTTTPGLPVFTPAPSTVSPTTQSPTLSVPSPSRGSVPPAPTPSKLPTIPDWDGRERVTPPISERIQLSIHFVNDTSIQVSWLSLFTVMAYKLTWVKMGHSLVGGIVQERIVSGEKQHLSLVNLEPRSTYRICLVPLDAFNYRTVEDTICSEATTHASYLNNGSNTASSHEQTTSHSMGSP", "assay": "SPR; biotinylated wild-type or mutant LPHN3^Lec-Olf on streptavidin-coated Biacore chips, FLRT2 ectodomain injected as analyte; equilibrium, 25°C, PBS pH 7.5, 0.005% polysorbate 20; 1:1 model", "details": "both partners purified"}, "[6]": {"target": "T3, murine FLRT2 full ectodomain, wild type …", "assay": "SPR; FLRT2 ectodomains (wild type, UF, FF) amine-coupled to a CM5 Biacore chip, LPHN3 Olf domain injected as analyte; equilibrium, 25°C, PBS pH 7.5, 0.005% polysorbate 20; 1:1 model", "details": "both partners purified"}, "[7]": {"details": "maximum response at the highest LPHN3 Olf concentration plotted (about 2 µM), parent: est. 390, read off a plot"}}}
{"molecule": "wild-type LPHN3 proteins", "values": [{"measurement": "Kd", "setting": "[1]", "result": "0.018 to 0.04", "unit": "µM"}]}
{"molecule": "murine FLRT2 full ectodomain, wild type (residues 35-540) (from UniProt Q8BLU0) FF", "values": [{"measurement": "response", "setting": "[2]; [7]", "result": -0, "unit": "RU"}]}
{"molecule": "murine FLRT2 full ectodomain, wild type (residues 35-540), Q8BLU0 UF (protein) ACPSVCRCDRNFVYCNERSLTSVPLGIPEGVTVLYLHNNQINNAGFPAELHNVQSVHTVYLYGNQLDEFPMNLPKNVRVLHLQENNIQTISRAALAQLLKLEELHLDDNSISTVGVEDGAFREAISLKLLFLSKNNLSSVPVGLPVDLQELRVDENRIAVISDMAFQNLTSLERLIVDGNLLTNKGIAEGTFSHLTKLKEFSIVRNSLSHPPPDLPGTHLIRLYLQDNQINHIPLTAFANLRKLERLDISNNQLRMLTQGVFDHLSNLKQLTARNNPWFCDCSIKWVTEWLKYIPSSLNVRGFMCQGPEQVRGMAVRELNMNLLSCPTTTPGLPVFTPAPSTVSPTTQSPTLSVPSPSRGSVPPAPTPSKLPTIPDWDGRERVTPPISERIQLSIHFVNDTSIQVSWLSLFTVMAYKLTWVKMGHSLVGGIVQERIVSGEKQHLSLVNLEPRSTYRICLVPLDAFNYRTVEDTICSEATTHASYLNNGSNTASSHEQTTSHSMGSP", "values": [{"measurement": "Kd", "setting": "[3]; FLRT2 ectodomains immobilized on a CM5 Biacore chip, LPHN3 olfactomedin domain injected as analyte, 1:1 binding model, parent: 40 nM", "result": 0.015, "unit": "µM"}, {"measurement": "response", "setting": "[3]; [7]", "result": 390, "unit": "RU"}]}
{"molecule": "B1", "values": [{"measurement": "Kd", "setting": "[2]", "result": 0.04, "unit": "µM"}]}
{"molecule": "murine LPHN3^Lec-Olf, wild type, biotinylated at a C-terminal Avi-Tag (domain or fragment, UniProt Q80TS3 92-463, looked up, biotin on the C-terminal Avi-Tag (enzymatic), Latrophilin 3 (LPHN3), mouse, lectin and olfactomedin-like domains; residues 92-463 are stated for the crystallization construct; Limits 92-463 are printed for the crystallization construct; the limits of the Avi-tagged construct may be in the Supplemental Experimental Procedures; also called LPHN^Lec-Olf; not shown: Avi-Tag, C-terminal, kept) PIPMAVVRRELSCESYPIELRCPGTDVIMIESANYGRTDDKICDSDPAQMENIRCYLPDAYKIMSQRCNNRTQCAVVAGPDVFPDPCPGTYKYLEVQYECVPYKVEQKVFLCPGLLKGVYQSEHLFESDHQSGAWCKDPLQASDKIYYMPWTPYRTDTLTEYSSKDDFIAGRPTTTYKLPHRVDGTGFVVYDGALFFNKERTRNIVKFDLRTRIKSGEAIIANANYHDTSPYRWGGKSDIDLAVDENGLWVIYATEQNNGKIVISQLNPYTLRIEGTWDTAYDKRSASNAFMICGILYVVKSVYEDDDNEATGNKIDYIYNTDQSKDSLVDVPFPNSYQYIAAVDYNPRDNLLYVWNNYHVVKYSLDFGPLD", "values": [{"measurement": "Kd", "setting": "[4]", "result": 0.018, "unit": "µM"}, {"measurement": "binding result", "setting": "[5]", "result": "binds"}]}
{"molecule": "murine LPHN3 olfactomedin domain (LPHN3^Olf, residues 202-463) (domain or fragment, UniProt Q80TS3 202-463, looked up, Latrophilin 3 (LPHN3), mouse, olfactomedin-like domain, residues 202-463; also called LPHN3 Olf domain; olfactomedin domain of murine LPHN3; source: kifunensine-treated HEK293T cells, transiently expressed, purified) LCPGLLKGVYQSEHLFESDHQSGAWCKDPLQASDKIYYMPWTPYRTDTLTEYSSKDDFIAGRPTTTYKLPHRVDGTGFVVYDGALFFNKERTRNIVKFDLRTRIKSGEAIIANANYHDTSPYRWGGKSDIDLAVDENGLWVIYATEQNNGKIVISQLNPYTLRIEGTWDTAYDKRSASNAFMICGILYVVKSVYEDDDNEATGNKIDYIYNTDQSKDSLVDVPFPNSYQYIAAVDYNPRDNLLYVWNNYHVVKYSLDFGPLD", "values": [{"measurement": "binding result", "setting": "[6]", "result": "binds"}]}
{"molecule": "murine LPHN3^Lec-Olf mutant LPHN3^LF(3) (T267N+K269T), biotinylated at a C-terminal Avi-Tag (domain or fragment, UniProt Q80TS3 92-463, looked up, biotin on the C-terminal Avi-Tag (enzymatic), Latrophilin 3 (LPHN3), mouse, lectin and olfactomedin-like domains; residues 92-463 are stated for the crystallization construct; artificial N-linked glycosylation site; not shown: Avi-Tag, C-terminal, kept) PIPMAVVRRELSCESYPIELRCPGTDVIMIESANYGRTDDKICDSDPAQMENIRCYLPDAYKIMSQRCNNRTQCAVVAGPDVFPDPCPGTYKYLEVQYECVPYKVEQKVFLCPGLLKGVYQSEHLFESDHQSGAWCKDPLQASDKIYYMPWTPYRTDTLTEYSSKDDFIAGRPTTNYTLPHRVDGTGFVVYDGALFFNKERTRNIVKFDLRTRIKSGEAIIANANYHDTSPYRWGGKSDIDLAVDENGLWVIYATEQNNGKIVISQLNPYTLRIEGTWDTAYDKRSASNAFMICGILYVVKSVYEDDDNEATGNKIDYIYNTDQSKDSLVDVPFPNSYQYIAAVDYNPRDNLLYVWNNYHVVKYSLDFGPLD", "values": [{"measurement": "binding result", "setting": "[5]", "result": "binds"}]}
{"molecule": "murine LPHN3^Lec-Olf mutant LPHN3^LF(4) (P244N+R246T), biotinylated at a C-terminal Avi-Tag (domain or fragment, UniProt Q80TS3 92-463, looked up, biotin on the C-terminal Avi-Tag (enzymatic), Latrophilin 3 (LPHN3), mouse, lectin and olfactomedin-like domains; residues 92-463 are stated for the crystallization construct; artificial N-linked glycosylation site; not shown: Avi-Tag, C-terminal, kept) PIPMAVVRRELSCESYPIELRCPGTDVIMIESANYGRTDDKICDSDPAQMENIRCYLPDAYKIMSQRCNNRTQCAVVAGPDVFPDPCPGTYKYLEVQYECVPYKVEQKVFLCPGLLKGVYQSEHLFESDHQSGAWCKDPLQASDKIYYMPWTNYTTDTLTEYSSKDDFIAGRPTTTYKLPHRVDGTGFVVYDGALFFNKERTRNIVKFDLRTRIKSGEAIIANANYHDTSPYRWGGKSDIDLAVDENGLWVIYATEQNNGKIVISQLNPYTLRIEGTWDTAYDKRSASNAFMICGILYVVKSVYEDDDNEATGNKIDYIYNTDQSKDSLVDVPFPNSYQYIAAVDYNPRDNLLYVWNNYHVVKYSLDFGPLD", "values": [{"measurement": "binding result", "setting": "[5]", "result": "binds"}]}
